US20260167679A1, “FUSION PROTEIN TARGETING MITOCHONDRIA, METHOD OF MAKING AND USE THEREOF” (UNIVERSITY OF ROCHESTER, priority 2020, published 2026)

Test system: isolated C. elegans mitochondria
Assay: Mitochondrial membrane potential measurement (TMRE) in isolated mitochondria
Assay type: biochemical, Caenorhabditis elegans
Details: mtON activation (+ATR, +light), rotenone, no added substrate, non-phosphorylating
Description: Isolated mitochondria at 0.5 mg/ml were stirred in mitochondrial respiration buffer (MRB: 120 mM KCl, 25 mM sucrose, 5 mM MgCl2, 5 mM KH2PO4, 1 mM EGTA, 10 mM HEPES, 1 mg/ml FF-BSA, pH 7.35) at 25° C. in the presence of 2 μM rotenone and 5 mM succinate where indicated. 300 nM tetramethylrhodamine ethyl ester (TMRE, Thermo Fisher, T669) was added to observe mitochondrial membrane potential in quench mode. Under quenching conditions, TMRE fluorescence is low in the presence of a AWm. Upon addition of a protonophore (e.g., FCCP), TMRE will exit mitochondria and dequench and increase total fluorescence. TMRE signal was measured by Cary Eclipse Fluorescence Spectrophotometer (Agilent Technologies) using a 335-620 nm excitation filter and a 550-1,100 nm emission. […] Increasing illumination time exposed mitochondria to more photons (calculated as fluence, J/cm^2). […] The average fluorescence intensity after addition of 2 μM FCCP (maximum fluorescence in quench mode) was subtracted from the starting test condition to give a change in fluorescence corresponding to changes in ΔΨm (ΔF for conditions without succinate, and ΔFmax for conditions with succinate). To represent polarization of the ΔWm, the ratio of change in fluorescence (DF, FCCP fluorescence minus experimental fluorescence) was used to the maximum change in fluorescence generated by succinate-driven Δψm (ΔFmax).

B1: mtON: fusion of the 187 N-terminal amino acids of mouse IMMT1 to the light-activated proton pump (Mac) from Leptosphaeria maculans (protein)
chain: MLRACQLSGVTVAAQSCLCGKFVLRPLRPCRRYSTSSSSGLTAGKIAGAGLLFVGGGIGGTILYAKWDSHFRESVEKTIPYSDKLFGMVLGSAPYTVPLPKKPVQSGPLKISSVSEVMKDSKLPVAQSQKTKGDTPASAASTGAAQIISAAGDTLSVPAPAVQHEDTIKTECPNTNEGKSTSETTEEPAGLIVDQFEEVLMKTSQLFPLPTATQSAQPTHVAPVPTVLPDTPIYETVGDSGSKTLWVVFVLMLIASAAFTALSWKIPVNRRLYHVITTIITLTAALSYFAMATGHGVALNKIVIRTQHDHVPDTYETVYRQVYYARYIDWAITTPLLLLDLGLLAGMSGAHIFMAIVADLIMVLTGLFAAFGSEGTPQKWGWYTIACIAYIFVVWHLVLNGGANARVKGEKLRSFFVAIGAYTLILWTAYPIVWGLADGARKIGVDGEIIAYAVLDVLAKGVFGAWLLVTHANLRESDVELNGFWANGLNREGAIRIGEDDGAR
modifications: Synthetic Complete mtON fusion protein sequence
polarization of Δψm (TMRE): polarize the Δψm as much as ETC-driven respiration
